B1: Ras-related protein Rab-5A (Homo sapiens), P20339 (parent)
chain: MASRGATRPNGPNTGNKICQFKLVLLGESAVGKSSLVLRFVKGQFHEFQESTIGAAFLTQTVCLDDTTVKFEIWDTAGQERYHSLAPMYYRGAQAAIVVYDITNEESFARAKNWVKELQRQASPNIVIALSGNKADLANKRAVDFQEAQSYADDNSLLFMETSAKTSMNVNEIFMAIAKKLPKNEPQNPGANSARGRGVDLTEPTQPTRNQCCSN
partner: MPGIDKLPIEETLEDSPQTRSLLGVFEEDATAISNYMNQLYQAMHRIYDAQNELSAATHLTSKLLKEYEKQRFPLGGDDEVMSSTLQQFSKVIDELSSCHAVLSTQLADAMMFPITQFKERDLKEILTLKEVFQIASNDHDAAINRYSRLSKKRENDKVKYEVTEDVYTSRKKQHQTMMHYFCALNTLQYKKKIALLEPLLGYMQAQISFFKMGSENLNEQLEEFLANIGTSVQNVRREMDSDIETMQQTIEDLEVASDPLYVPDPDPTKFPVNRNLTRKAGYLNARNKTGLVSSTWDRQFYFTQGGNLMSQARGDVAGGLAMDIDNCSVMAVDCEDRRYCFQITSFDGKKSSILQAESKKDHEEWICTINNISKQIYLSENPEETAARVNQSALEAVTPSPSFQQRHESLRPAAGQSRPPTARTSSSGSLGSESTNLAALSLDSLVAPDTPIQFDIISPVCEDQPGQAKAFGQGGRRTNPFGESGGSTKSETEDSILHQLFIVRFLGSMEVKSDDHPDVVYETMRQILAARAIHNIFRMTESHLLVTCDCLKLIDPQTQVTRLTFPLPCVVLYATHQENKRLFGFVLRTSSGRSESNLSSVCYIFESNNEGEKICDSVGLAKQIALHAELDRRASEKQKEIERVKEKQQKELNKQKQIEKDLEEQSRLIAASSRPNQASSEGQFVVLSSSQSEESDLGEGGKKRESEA

Variants of: B1
Conditions: with dp13a_human APPL1, Q9UKG1

| effect of a mutation on the interaction | Variant |
| --- | --- |
| disrupting interaction strength | MASRGATRPNGPNTGNKICQFKLVLLGESAVGKNSLVLRFVKGQFHEFQESTIGAAFLTQTVCLDDTTVKFEIWDTAGQERYHSLAPMYYRGAQAAIVVYDITNEESFARAKNWVKELQRQASPNIVIALSGNKADLANKRAVDFQEAQSYADDNSLLFMETSAKTSMNVNEIFMAIAKKLPKNEPQNPGANSARGRGVDLTEPTQPTRNQCCSN [S34N] |
